Patent publication US6492117, “Zinc finger polypeptides capable of binding DNA quadruplexes” (Gendaq Limited)

Molecular target: glutathione-S-transferase (UniProt P08515 P08515:1-218)
Assay: EMSA; GST alone control
Details: tags: GST (pGEX-3X, Amersham-Pharmacia); label: 5'-32P; G4, antiparallel intramolecular
Method: Binding reactions are performed in a final volume of 10 µl, using 10 fmol of labelled oligonucleotide and various amounts of purified Gq1* in binding buffer: 20 mM Tris-HCl pH 7.5, 1 mM EDTA, 1 mM DTT, 6% glycerol, 100 µg/ml BSA, 1 µg/ml calf thymus DNA, 50 µM ZnCl_2 and KCl to 150 mM. Binding reactions are carried out at room temperature for 1 hour. The samples are loaded on a 8% polyacrylamide (acrylamide:bisacrylamide=33:1) non-denaturing gel. The buffer in the gel and for electrophoresis is 0.5 X TB buffer (Sambrook, J., Fritsch, E. F., & Maniatis, T. (1989) in Molecular Cloning, A Laboratory Manual, Cold Spring Harbor Laboratory Press, Cold Spring Harbor.). Electrophoresis is performed at 15 V/cm, for 2 hours, at 4° C. […] The bands are quantified using Imagequant software. The fraction of DNA that is bound and free is determined after normalization by summing the total number of counts in each lane (Senear D F, Brenowitz M (1991) J Biol Chem Jul 25;266(21):13661–71). To minimise any error due to perturbation of the equilibrium under electrophoretic conditions, the fraction of free DNA is measured at various protein concentrations rather than measuring the amount of complex formed (Cann J R (1989) J Biol Chem Oct 15;264(29):17032–40; Garner M M, Revzin A (1981) Nucleic Acids Res Jul 10;9(13):3047–60). […]

Sequence of glutathione-S-transferase (P08515 whole entry, one chain of several): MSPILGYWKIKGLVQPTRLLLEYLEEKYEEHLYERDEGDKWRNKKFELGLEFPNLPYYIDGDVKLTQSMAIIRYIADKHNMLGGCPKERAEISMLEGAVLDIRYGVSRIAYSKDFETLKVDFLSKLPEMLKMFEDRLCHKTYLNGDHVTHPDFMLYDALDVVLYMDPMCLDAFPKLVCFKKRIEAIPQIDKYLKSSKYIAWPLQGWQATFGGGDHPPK

GGTTAGGGTTAGGGTTAGGGTTAGGGTTAG (structured_DNA) [Htelo]: no binding.
